In patent publication US20250197491A1 (MACOMICS, published 2025):

Key:
[1] = target: T1, human LILRB1 ectodomain fused to mIgG2a Fc (human); assay: summary table (ELISA); Y = Yes
T1 construct: also called human LILRB1-mIgG2a; full length LILRB1 ectodomain

Human LILRA1 ectodomain = target: T2, Human LILRA1 ectodomain (human, UniProt O75019 17-461); assay: multi-point ELISA, antigen coated, apparent EC50
T2 construct: Recombinant protein from a commercial source
Method: (§1) FIG. 32. Binding of Clones 1-5 to selected LILR family members tested by multiple point ELISA. Recombinant LILRB1, LILRB2, LILRB3, LILRA1, LILRA3, LILRA4, and LILRA6, or irrelevant control protein were coated on the ELISA plates. The plates were then blocked with milk in PBST. Next, the plates were incubated with serial dilutions (12.5 nM to 0.02 nM) of Clones 1-5 (A-E). Bound antibodies were detected using HRP-conjugated anti-human Fc antibodies and the chromogenic substrate.
as §1, with “Binding of” for “FIG. 32. Binding of”, “point ELISA. (FIG. 32) Recombinant LILRB1,” for “point ELISA. Recombinant LILRB1,”, “LILRA3, LILRA4, LILRA6, or” for “LILRA3, LILRA4, and LILRA6, or”, “nM) of Clone 1-5 (A-E).” for “nM) of Clones 1-5 (A-E).”

Human full length LILRA3 = target: T3, Human full length LILRA3 (human, UniProt Q8N6C8 24-439); assay: multi-point ELISA, antigen coated, apparent EC50
T3 construct: Commercial recombinant protein; also the parent of the LILRA3 peptide microarrays
T3 sequence (Q8N6C8 24-439 A105V limits assumed): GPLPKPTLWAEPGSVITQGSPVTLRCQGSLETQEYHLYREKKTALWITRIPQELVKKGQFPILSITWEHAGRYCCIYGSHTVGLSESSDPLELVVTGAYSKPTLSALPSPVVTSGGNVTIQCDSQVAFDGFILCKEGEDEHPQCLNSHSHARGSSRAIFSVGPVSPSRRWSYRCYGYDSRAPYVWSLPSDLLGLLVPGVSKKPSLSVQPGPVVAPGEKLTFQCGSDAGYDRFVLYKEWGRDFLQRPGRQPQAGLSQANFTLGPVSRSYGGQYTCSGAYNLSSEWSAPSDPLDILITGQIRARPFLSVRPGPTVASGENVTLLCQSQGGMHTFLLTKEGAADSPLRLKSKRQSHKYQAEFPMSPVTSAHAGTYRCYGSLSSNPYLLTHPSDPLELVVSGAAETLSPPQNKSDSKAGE
Method: as §1
as §1, with “Binding of” for “FIG. 32. Binding of”, “point ELISA. (FIG. 32) Recombinant LILRB1,” for “point ELISA. Recombinant LILRB1,”, “LILRA3, LILRA4, LILRA6, or” for “LILRA3, LILRA4, and LILRA6, or”, “nM) of Clone 1-5 (A-E).” for “nM) of Clones 1-5 (A-E).”

[2] = target: LILRB1 recombinant, full-length ectodomain (human, UniProt Q8NHL6 24-461); assay: multi-point ELISA, antigen coated, apparent EC50
Chain of LILRB1 recombinant, full-length ectodomain (Q8NHL6 24-461 limits assumed): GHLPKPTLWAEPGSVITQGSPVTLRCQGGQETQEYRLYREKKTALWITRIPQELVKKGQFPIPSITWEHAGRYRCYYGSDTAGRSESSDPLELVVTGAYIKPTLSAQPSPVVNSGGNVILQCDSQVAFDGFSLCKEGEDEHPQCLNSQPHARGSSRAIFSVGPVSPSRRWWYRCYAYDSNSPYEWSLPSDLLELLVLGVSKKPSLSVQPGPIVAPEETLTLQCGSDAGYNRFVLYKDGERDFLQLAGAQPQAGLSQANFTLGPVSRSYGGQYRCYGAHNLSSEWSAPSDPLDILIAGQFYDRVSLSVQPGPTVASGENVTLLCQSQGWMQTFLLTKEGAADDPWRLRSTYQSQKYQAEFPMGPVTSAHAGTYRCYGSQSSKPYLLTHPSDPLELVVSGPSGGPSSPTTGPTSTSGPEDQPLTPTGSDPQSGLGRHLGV
Method: as §1
as §1, with “Binding of” for “FIG. 32. Binding of”, “point ELISA. (FIG. 32) Recombinant LILRB1,” for “point ELISA. Recombinant LILRB1,”, “LILRA3, LILRA4, LILRA6, or” for “LILRA3, LILRA4, and LILRA6, or”, “nM) of Clone 1-5 (A-E).” for “nM) of Clones 1-5 (A-E).”

[3] = target: LILRB2 recombinant, full-length ectodomain (LILRB2 22-458) (human, UniProt Q8N423 22-458); assay: multi-point ELISA, antigen coated, apparent EC50
Chain of LILRB2 recombinant, full-length ectodomain (LILRB2 22-458) (Q8N423 22-458): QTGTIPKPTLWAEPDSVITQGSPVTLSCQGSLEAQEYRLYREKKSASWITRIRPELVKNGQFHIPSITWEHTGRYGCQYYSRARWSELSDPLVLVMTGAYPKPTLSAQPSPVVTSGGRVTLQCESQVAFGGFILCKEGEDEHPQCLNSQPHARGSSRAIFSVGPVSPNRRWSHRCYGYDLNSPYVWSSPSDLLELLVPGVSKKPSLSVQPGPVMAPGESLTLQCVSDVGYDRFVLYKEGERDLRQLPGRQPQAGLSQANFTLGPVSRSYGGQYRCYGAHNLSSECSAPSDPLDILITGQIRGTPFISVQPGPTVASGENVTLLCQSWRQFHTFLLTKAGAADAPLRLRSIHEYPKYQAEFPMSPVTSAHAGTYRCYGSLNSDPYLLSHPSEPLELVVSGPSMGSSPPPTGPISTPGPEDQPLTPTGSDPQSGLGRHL
Method: as §1
as §1, with “Binding of” for “FIG. 32. Binding of”, “point ELISA. (FIG. 32) Recombinant LILRB1,” for “point ELISA. Recombinant LILRB1,”, “LILRA3, LILRA4, LILRA6, or” for “LILRA3, LILRA4, and LILRA6, or”, “nM) of Clone 1-5 (A-E).” for “nM) of Clones 1-5 (A-E).”

[4] = target: LILRB3 recombinant, full-length ectodomain (LILRB3 24-443) (human, UniProt O75022 24-443); assay: multi-point ELISA, antigen coated, apparent EC50
Chain of LILRB3 recombinant, full-length ectodomain (LILRB3 24-443) (O75022 24-443): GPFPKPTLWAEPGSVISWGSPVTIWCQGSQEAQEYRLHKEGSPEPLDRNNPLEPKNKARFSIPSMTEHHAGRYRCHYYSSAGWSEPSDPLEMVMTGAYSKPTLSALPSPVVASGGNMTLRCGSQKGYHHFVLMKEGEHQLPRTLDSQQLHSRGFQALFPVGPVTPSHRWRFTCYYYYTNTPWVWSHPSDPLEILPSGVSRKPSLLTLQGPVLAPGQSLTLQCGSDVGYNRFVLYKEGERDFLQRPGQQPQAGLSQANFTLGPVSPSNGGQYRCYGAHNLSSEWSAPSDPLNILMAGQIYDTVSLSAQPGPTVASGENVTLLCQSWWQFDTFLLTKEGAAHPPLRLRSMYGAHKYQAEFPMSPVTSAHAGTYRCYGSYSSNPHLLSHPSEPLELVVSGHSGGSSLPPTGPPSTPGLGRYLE
Method: as §1
as §1, with “Binding of” for “FIG. 32. Binding of”, “point ELISA. (FIG. 32) Recombinant LILRB1,” for “point ELISA. Recombinant LILRB1,”, “LILRA3, LILRA4, LILRA6, or” for “LILRA3, LILRA4, and LILRA6, or”, “nM) of Clone 1-5 (A-E).” for “nM) of Clones 1-5 (A-E).”

[5] = target: LILRA4 recombinant, full-length ectodomain (LILRA4 24-446) (human, UniProt P59901 24-446); assay: multi-point ELISA, antigen coated, apparent EC50
Chain of LILRA4 recombinant, full-length ectodomain (LILRA4 24-446) (P59901 24-446): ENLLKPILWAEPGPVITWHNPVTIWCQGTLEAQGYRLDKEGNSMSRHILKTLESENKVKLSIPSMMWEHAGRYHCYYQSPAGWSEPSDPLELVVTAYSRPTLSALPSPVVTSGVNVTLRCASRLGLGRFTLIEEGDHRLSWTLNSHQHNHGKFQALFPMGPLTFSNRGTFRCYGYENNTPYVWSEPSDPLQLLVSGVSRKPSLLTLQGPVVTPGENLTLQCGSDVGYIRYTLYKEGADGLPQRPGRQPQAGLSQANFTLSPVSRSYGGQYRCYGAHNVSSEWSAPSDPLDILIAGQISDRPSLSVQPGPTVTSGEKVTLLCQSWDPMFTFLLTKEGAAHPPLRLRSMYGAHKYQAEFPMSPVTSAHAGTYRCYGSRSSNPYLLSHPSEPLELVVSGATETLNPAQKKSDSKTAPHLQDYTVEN
Method: as §1
as §1, with “Binding of” for “FIG. 32. Binding of”, “point ELISA. (FIG. 32) Recombinant LILRB1,” for “point ELISA. Recombinant LILRB1,”, “LILRA3, LILRA4, LILRA6, or” for “LILRA3, LILRA4, and LILRA6, or”, “nM) of Clone 1-5 (A-E).” for “nM) of Clones 1-5 (A-E).”

[6] = target: LILRA6 recombinant, full-length ectodomain (LILRA6 24-447) (human, UniProt Q6PI73 24-447); assay: multi-point ELISA, antigen coated, apparent EC50
Chain of LILRA6 recombinant, full-length ectodomain (LILRA6 24-447) (Q6PI73 24-447): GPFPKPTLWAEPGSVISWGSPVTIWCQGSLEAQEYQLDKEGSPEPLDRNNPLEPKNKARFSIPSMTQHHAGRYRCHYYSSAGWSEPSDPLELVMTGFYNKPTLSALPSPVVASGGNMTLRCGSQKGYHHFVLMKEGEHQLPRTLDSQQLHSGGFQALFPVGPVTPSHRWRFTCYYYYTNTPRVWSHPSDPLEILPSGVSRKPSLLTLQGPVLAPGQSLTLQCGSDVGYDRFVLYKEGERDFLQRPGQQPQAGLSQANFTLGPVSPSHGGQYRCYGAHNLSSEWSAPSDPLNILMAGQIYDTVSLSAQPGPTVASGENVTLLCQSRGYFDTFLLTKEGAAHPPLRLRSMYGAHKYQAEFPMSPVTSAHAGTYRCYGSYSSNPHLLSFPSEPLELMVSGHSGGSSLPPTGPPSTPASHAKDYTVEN
Method: as §1
as §1, with “Binding of” for “FIG. 32. Binding of”, “point ELISA. (FIG. 32) Recombinant LILRB1,” for “point ELISA. Recombinant LILRB1,”, “LILRA3, LILRA4, LILRA6, or” for “LILRA3, LILRA4, and LILRA6, or”, “nM) of Clone 1-5 (A-E).” for “nM) of Clones 1-5 (A-E).”

T2 sequence (O75019 17-461): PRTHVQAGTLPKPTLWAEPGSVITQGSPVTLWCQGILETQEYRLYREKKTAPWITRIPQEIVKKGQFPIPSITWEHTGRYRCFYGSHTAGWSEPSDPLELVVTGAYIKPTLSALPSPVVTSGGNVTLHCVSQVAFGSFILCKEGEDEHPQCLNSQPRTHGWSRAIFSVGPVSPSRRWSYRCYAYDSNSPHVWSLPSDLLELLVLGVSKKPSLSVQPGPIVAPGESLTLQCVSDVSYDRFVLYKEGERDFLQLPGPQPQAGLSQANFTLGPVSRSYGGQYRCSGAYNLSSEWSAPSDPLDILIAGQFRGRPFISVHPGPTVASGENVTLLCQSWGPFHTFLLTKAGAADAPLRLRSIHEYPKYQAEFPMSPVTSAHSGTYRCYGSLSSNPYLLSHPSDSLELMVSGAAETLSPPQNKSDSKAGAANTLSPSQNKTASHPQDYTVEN
T1 sequence (chain, as listed by the source limits assumed): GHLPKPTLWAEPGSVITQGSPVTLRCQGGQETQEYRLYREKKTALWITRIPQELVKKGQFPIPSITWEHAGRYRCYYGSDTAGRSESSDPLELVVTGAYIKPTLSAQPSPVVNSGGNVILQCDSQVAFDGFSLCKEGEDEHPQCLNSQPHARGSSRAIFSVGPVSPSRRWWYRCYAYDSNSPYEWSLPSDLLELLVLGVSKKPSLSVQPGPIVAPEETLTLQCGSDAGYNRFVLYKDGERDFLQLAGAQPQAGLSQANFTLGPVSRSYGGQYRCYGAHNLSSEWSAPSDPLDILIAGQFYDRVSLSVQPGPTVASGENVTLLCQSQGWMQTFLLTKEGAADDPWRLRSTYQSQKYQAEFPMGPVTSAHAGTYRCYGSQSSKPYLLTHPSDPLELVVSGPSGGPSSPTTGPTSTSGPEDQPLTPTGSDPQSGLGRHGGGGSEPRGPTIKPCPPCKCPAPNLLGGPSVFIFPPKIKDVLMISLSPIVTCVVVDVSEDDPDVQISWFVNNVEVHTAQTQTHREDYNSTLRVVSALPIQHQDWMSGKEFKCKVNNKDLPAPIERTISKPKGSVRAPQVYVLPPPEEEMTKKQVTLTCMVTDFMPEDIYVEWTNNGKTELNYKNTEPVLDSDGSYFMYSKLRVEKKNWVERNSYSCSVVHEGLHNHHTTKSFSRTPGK

| Binder | binding result [1] | EC50 (Human LILRA1 ectodomain) | EC50 (Human full length LILRA3) | EC50 [2] | EC50 [3] | EC50 [4] | EC50 [5] | EC50 [6] |
| --- | --- | --- | --- | --- | --- | --- | --- | --- |
| Antibody 1 (antibody, V domains shown, Fully human antibody expressed in CHO; also called Clone 1; Antibody Clone 1) VH: QVQLVESGGGLVKPGGSLRLSCAASGFTFSDYYMSWIRQAPGKGLEWVSYISSSGSIKKYADSVKGRFTISRDNAKNSLYLQMNSLRGEDTAVYYCARTNWHFDYWGQGTLVTVSS VL: EIVLTQSPGTLSLSPGERATLSCRASQSVSSSYLAWYQQKPGQAPRLLIFGASTRATGIPDRFSGSGSGTDFTLTISRLEPEDVAVYYCQQYYSTPFTFGPGTKVDIK | binds | 2.38 nM | 0.97 nM | 0.55 nM | 0.73 nM | 2 nM | 0.81 nM | 1.81 nM |
| Antibody 3 (antibody, V domains shown, Fully human antibody; IgG4; also called Clone 3; Antibody Clone 3) VH: QVQLVQSGAEVKKPGASVKVSCKASGYTFTSYGISWVRQAPGQGLEWMGWISAYNGNTNYAQKLQGRVTMTTDTSTSTAYMELRSLRSDDTAVYYCARSYSGSHWWFDPWGQGTLVTVSS VL: not shown | binds | 1.76 nM | 1.2 nM | 1.38 nM | 1.28 nM | 1.75 nM | 1.15 nM | 1.69 nM |

The remaining lines, values ahead:

| binding result [1] | EC50 (Human LILRA1 ectodomain) | EC50 (Human full length LILRA3) | EC50 [2] | EC50 [3] | EC50 [4] | EC50 [5] | EC50 [6] | Binder |
| --- | --- | --- | --- | --- | --- | --- | --- | --- |
| binds | 9.07 nM | 1.26 nM | 0.99 nM | 1.04 nM | 0.99 nM | 0.84 nM | 0.97 nM | Antibody 5 (antibody, V domains shown, Fully human antibody; IgG4; also called Clone 5; Antibody Clone 5) VH: QVQLVESGGGLVKPGGSLRLSCAASGFTFSDYYMTWIRQAPGKGLEWVSYISISGITRYYADSVKGRFTISRDNAKNSLYLQMNSLRAEDTAVYYCARDQTGYFDYWGQGTLVTVSS VL: DIVMTQSPATLSVSPGEKTTLSCRASQSFSSNLAWYQQKPGQAPRLLIYGASTRATGIPARFSGSGSGTEFTLTISSLQSEDFAVYYCQQYINWPHTFGQGTKVEIK |
| binds | 4.1 nM | 1.42 nM | 1.24 nM | 1.39 nM | 1.38 nM | 1.38 nM | 2.2 nM | Antibody 4 (antibody, V domains shown, Fully human antibody; IgG4; also called Clone 4; Antibody Clone 4) VH: QVQLVQSGAEVKKPGASVKVSCKASGYTFTSYGISWVRQAPGQGLEWMGWISAYNGNTNYAQKLQGRVTMTTDTSTSTAYMELRSLRSDDTAVYYCARSYSGSYWWFDPWGQGTLVTVSS VL: not shown |
